Data taken from patent publication US20250243261A1.

Legend:
[1] = target: SARS-CoV-2 Omicron-variant receptor binding domain (RBD) (SARS-CoV-2 Omicron variant); assay: BLI, IgG
[2] = target: SARS-CoV-2 Beta-variant Spike with two stabilizing proline substitutions (S-2P) (SARS-CoV-2 Beta variant); assay: BLI, IgG, single replicate
[3] = target: SARS-CoV-2 Beta-variant Spike with two stabilizing proline substitutions (S-2P) (SARS-CoV-2 Beta variant); assay: BLI, Fab
[4] = target: SARS-CoV-2 Omicron-variant receptor binding domain (RBD) (SARS-CoV-2 Omicron variant); assay: BLI, Fab
[5] = target: SARS-CoV-2 XBB.1.5 Spike RBD (SARS-CoV-2 XBB.1.5 variant); assay: BLI, IgG
[6] = target: SARS-CoV-2 BQ.1.1 Spike RBD (SARS-CoV-2 BQ.1.1 variant); assay: BLI, IgG
[7] = target: SARS-CoV-2 XBB Spike RBD (SARS-CoV-2 XBB variant); assay: BLI, IgG

B1: REGN10987 WT IgG (antibody, V domains shown)
VH: QVQLVESGGGVVQPGRSLRLSCAASGFTFSNYAMYWVRQAPGKGLEWVAVISYDGSNKYYADSVKGRFTISRDNSKNTLYLQMNSLRTEDTAVYYCASGSDYGDYLLVYWGQGTLVTVSS
VL: QSALTQPASVSGSPGQSITISCTGTSSDVGGYNYVSWYQQHPGKAPKLMIYDVSKRPSGVSNRFSGSKSGNTASLTISGLQSEDEADYYCNSLTSISTWVFGGGTKLTVL
B1 was tested, and the Kd [1] was 700 nM and the Kd [2] was 0.09 nM.

B2: REGN10987 WT Fab (Fab, V domains shown)
VH: B1 VH
VL: B1 VL
For B2, the Kd [3] was 13 nM and the Kd [4] was 23000 nM.

B3: SA58 WT IgG (antibody, V domains shown)
VH: QVQLAQSGSELRKPGASVKVSCDTSGHSFTSNAIHWVRQAPGQGLEWMGWINTDTGTPTYAQGFTGRFVFSLDTSARTAYLQISSLKADDTAVFYCARERDYSDYFFDYWGQGTLVTVSS
VL: EVVMTQSPASLSVSPGERATLSCRARASLGISTDLAWYQQRPGQAPRLLIYGASTRATGIPARFSGSGSGTEFTLTISSLQSEDSAVYYCQQYSNWPLTFGGGTKVEIK
In the case of B3, the Kd [5] is reported as 2400 nM, the Kd [6] is reported as < 0.001 nM and the Kd [7] is reported as 7400 nM.
